# Measurements: the RNAGym collection of RNA variant scans (doi:10.7554/elife.90254)
# B1: OR4K15 (parent)
# chain: GUUAACGGUCAUAGGCCAUGGAAACUAGGAGCACCAUUUCGCUGCCAGUGAAGAAAUGAACAAAGAAAAUCUGGGCCAGGCAGGCAUCAAAAGAAAUAGUCUUGCGCUCAACCAGAAAGUCUGUAAUCAUUUUAAGGGUA
# Variants of: B1
# Assay: self-cleavage, relative activity (ratio to wild type); higher = more cleavage; in vitro, sequencing; the parent is a self-cleaving ribozyme
row,Variant,self-cleavage
1,G41A A111G,0.02
2,U39C A82G,0.67
3,U43G A111G,0.03
4,G44U A59G,1.67
5,U39C A90G,0.84
6,U43C A92G,1.24
7,G41U A89G,2.13
8,C42G U43A,1.91
9,C42U,1.44
10,C42G,1.62
11,C42A,0.45
12,U43C U108C,0.02
13,U43C U108A,0.02
14,U43C A95U,0.49
15,U43A U102C,2.2
16,U43A U102A,0.78
17,U43C U57G,0.87
18,U43C U103G,0.01
19,U39G A89G,1.18
20,G41C U43C,2.19
21,C40U U130C,0.46
22,G41C A52U,2.16
23,G41A U130C,0.99
24,C42A A69G,1.88

row,Variant,self-cleavage
1,U43C A114U,0.05
2,U43C A114C,0.03
3,U43A U49C,1.49
4,G44A C77U,2.17
5,G44C U102C,2.81
6,U43C A54G,1.4
7,U43C A54U,0.85
8,U43C C71A,0.32
9,C42A U120A,1.7
10,G44C A78G,0.52
11,U39C C61U,2.41
12,U39C G106A,0.01
13,G44U A64G,1.19
14,U43C G136A,1.75
15,G44A A64G,1.36
16,G41U A47G,1.2
17,U43C G74C,0.23
18,U39G A125G,0.62
19,U43C A86G,1.32
20,C42U A95G,2.84
21,U39C C85G,0.99
22,G41U A68G,1.46
23,U39C A140U,1.62
24,U39C A140G,1.57

row,Variant,self-cleavage
1,U43C U131C,1.36
2,U39C U132A,0.7
3,U39C U132C,1.12
4,C40U A114G,0.5
5,G41C A66U,1.25
6,G41A U122C,1.67
7,U39C A69G,1.37
8,U39C C121U,2.87
9,C42U U139A,2
10,C40A U124C,0.93
11,C40U U108A,0.01
12,G41A A94G,1.9
13,U39C A68U,2.09
14,C40U U72A,0.34
15,G41C A51C,0.71
16,U43A G74C,0.23
17,G44A A82U,0.23
18,U43C A91U,1.88
19,U43C A78U,0.4
20,G44U A52U,0
21,U43A A60G,1.52
22,U39C A125G,0.66
23,G44A U124C,0.45
24,G44A U124A,1.15

row,Variant,self-cleavage
1,G44A A54G,1.57
2,U43G A125G,1.11
3,U39C G79U,0.1
4,U43C U49C,1.22
5,C40U A59G,2.06
6,U43C A126C,1.95
7,U43C A126G,0.73
8,G44A A95G,1.76
9,U39C G50A,1.2
10,U39C A135G,1.82
11,U39C A135U,1.73
12,C42U A129G,1.47
13,U43C A47G,0.98
14,G41U A52G,1.47
15,G41U,1.74
16,G41C,1.78
17,G41A,1.67
18,C42U G44A,1.51
19,U39C C107A,0.03
20,U43A A110G,0.19
21,C40A A66G,1.69
22,C40A A66U,1.52
23,C40U U132A,1.27
24,U43C A55G,1.07

row,Variant,self-cleavage
1,C42G A51G,1.47
2,U43C U87A,1.94
3,U43C U87C,0.35
4,G41A A60G,1.63
5,U43C,1.29
6,U43G,1.7
7,U43A,1.58
8,U43C U127C,0.89
9,U43C C112U,0
10,U43A U87C,1.55
11,U43A U87A,1.94
12,U39C U120A,2.52
13,U39C A64C,1.88
14,U39C A64U,1.77
15,U43G U49C,2.01
16,G41U A117G,1.93
17,G41A U70C,1.12
18,U43A U122G,2.29
19,U39C A116U,0.23
20,U39C A91G,1.4
21,G44A A63C,2.07
22,G44A A63G,0.71
23,C42A A91U,0.86
24,U43C A90U,1.83

row,Variant,self-cleavage
1,G41C A67U,1.8
2,G41A A110G,0.12
3,U43A U57C,1.15
4,U39C C71A,0.38
5,C40U U97C,0.94
6,C40U U97A,1.63
7,U43A A89U,1.74
8,C40U A116G,1.57
9,U43C U70C,0.83
10,U43C U70G,1.28
11,U39C A117G,1.95
12,U39C A117U,1.08
13,C40A U49C,1.85
14,U39G A64G,1.12
15,G41U A66G,1.11
16,U43C U100C,2.35
17,G44A A134U,0.73
18,G41A A125C,0.19
19,G41A A125G,0.77
20,U39C U72A,0.32
21,U39C U72C,0.27
22,C40U U103C,0.96
23,C40U U57C,1.07
24,G41A U127A,2.15

row,Variant,self-cleavage
1,G41A U127C,1.22
2,U43C A63C,2.53
3,U39C A129U,1.16
4,U39C A129G,1.7
5,U39C U131C,1.05
6,U43C C85U,1.32
7,U43A A126U,1.41
8,U43A A126G,1.25
9,U43G A51G,2.35
10,U43G A51U,2.16
11,G44C A82U,0.27
12,G41A A56G,2.07
13,U43C U139A,1.3
14,G41A A91G,1.55
15,U43C U132A,1.82
16,U43C A111G,0.02
17,U39C G138A,1.78
18,U43A U100C,2.43
19,U43C A125G,0.53
20,U43C A125U,1.56
21,U39G A47U,0.98
22,U43C U102C,2.15
23,U43C U102A,1
